Laboratory results as given in patent publication US20220298223A1 (KING S COLLEGE LONDON, published 2022).

T1: human CD19 expressed on LO68 tumor cells (human, UniProt P15391 20-556)
T1 construct: whole, on cells; also called CD19+ LO68 tumor cells; CD19-engineered LO68 tumor cells
T1 sequence (looked up): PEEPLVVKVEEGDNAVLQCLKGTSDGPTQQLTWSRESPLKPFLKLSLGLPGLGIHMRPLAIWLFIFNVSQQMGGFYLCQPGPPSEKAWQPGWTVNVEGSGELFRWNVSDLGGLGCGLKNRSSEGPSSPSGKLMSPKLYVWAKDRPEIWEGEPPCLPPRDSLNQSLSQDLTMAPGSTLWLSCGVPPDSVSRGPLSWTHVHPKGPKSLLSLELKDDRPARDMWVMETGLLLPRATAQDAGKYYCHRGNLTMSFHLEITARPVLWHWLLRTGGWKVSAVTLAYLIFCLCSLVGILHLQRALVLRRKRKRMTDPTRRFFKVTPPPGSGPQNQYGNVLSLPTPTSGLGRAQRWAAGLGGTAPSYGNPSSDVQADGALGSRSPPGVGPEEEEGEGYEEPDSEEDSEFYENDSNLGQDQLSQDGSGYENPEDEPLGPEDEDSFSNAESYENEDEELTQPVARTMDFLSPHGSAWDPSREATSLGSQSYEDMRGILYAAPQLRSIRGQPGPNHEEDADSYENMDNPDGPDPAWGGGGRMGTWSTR


Target: T1, human CD19 expressed on LO68 tumor cells
Test: z-Movi microfluidic chip, CAR T cells on a monolayer of CD19+ LO68 tumor cells, force ramp, percent bound T cells
Experimental: CD19-engineered LO68 tumor cells were seeded in a z-Movi microfluidic chip and cultured for 16 hours. The next day, flow sorted CAR-T cells were serially flowed in the chips and incubated with the target cells for 5 minutes prior to initializing a 3-minute linear force ramp. Cell detachment was determined using post-experiment using image analysis techniques.
Increasing fluidic force was applied and the percentage of bound T-cells was determined (median, n=3). […] Data are presented as median rForce which is the relative force required to elicit cell detachment, calibrated to […] polystyrene beads. Since data were not normally distributed, they are presented as median rForce which is the relative force required to elicit cell detachment and calibrated to […] polystyrene beads. […] Data shown are mean±standard error (n=11 runs, 3 independent donors). […] For clarity, a single representative run for one healthy donor is plotted in which each dot represents a single cell.

Binder	binding result
G02 second generation CAR (F-2 with the second glycine of FMC63 VH CDR3 substituted by alanine), expressed on human T cells (other, CAR on transduced human T cells; also called FMC63(G02)) DIQMTQTTSSLSASLGDRVTISCRASQDISKYLNWYQQKPDGTVKLLIYHTSRLHSGVPSRFSGSGSGTDYSLTISNLEQEDIATYFCQQGNTLPYTFGGGTKLEITGGGGSGGGGSGGGGSEVKLQESGPGLVAPSQSLSVTCTVSGVSLPDYGVSWIRQPPRKGLEWLGVIWGSETTYYNSALKSRLTIIKDNSKSQVFLKMNSLQTDDTAIYYCAKHYYYGASYAMDYWGQGTSVTVSSAAAIEVEQKLISEEDLLDNEKSNGTIIHVKGKHLCPSPLFPGPSKPFWVLVVVGGVLACYSLLVTVAFIIFWVRSKRSRLLHSDYMNMTPRRPGPTRKHYQPYAPPRDFAAYRSRVKFSRSADAPAYQQGQNQLYNELNLGRREEYDVLDKRRGRDPEMGGKPRRKNPQEGLYNELQKDKMAEAYSEIGMKGERRRGKGHDGLYQGLSTATKDTYDALHMQALPPR	binds
Y03 second generation CAR (F-2 with the third tyrosine of FMC63 VH CDR3 substituted by alanine), expressed on human T cells (other, CAR on transduced human T cells; also called FMC63(Y03)) DIQMTQTTSSLSASLGDRVTISCRASQDISKYLNWYQQKPDGTVKLLIYHTSRLHSGVPSRFSGSGSGTDYSLTISNLEQEDIATYFCQQGNTLPYTFGGGTKLEITGGGGSGGGGSGGGGSEVKLQESGPGLVAPSQSLSVTCTVSGVSLPDYGVSWIRQPPRKGLEWLGVIWGSETTYYNSALKSRLTIIKDNSKSQVFLKMNSLQTDDTAIYYCAKHYYAGGSYAMDYWGQGTSVTVSSAAAIEVEQKLISEEDLLDNEKSNGTIIHVKGKHLCPSPLFPGPSKPFWVLVVVGGVLACYSLLVTVAFIIFWVRSKRSRLLHSDYMNMTPRRPGPTRKHYQPYAPPRDFAAYRSRVKFSRSADAPAYQQGQNQLYNELNLGRREEYDVLDKRRGRDPEMGGKPRRKNPQEGLYNELQKDKMAEAYSEIGMKGERRRGKGHDGLYQGLSTATKDTYDALHMQALPPR	binds
Y01 second generation CAR (F-2 with the first tyrosine of FMC63 VH CDR3 substituted by alanine), expressed on human T cells (other, CAR on transduced human T cells; also called FMC63(Y01)) DIQMTQTTSSLSASLGDRVTISCRASQDISKYLNWYQQKPDGTVKLLIYHTSRLHSGVPSRFSGSGSGTDYSLTISNLEQEDIATYFCQQGNTLPYTFGGGTKLEITGGGGSGGGGSGGGGSEVKLQESGPGLVAPSQSLSVTCTVSGVSLPDYGVSWIRQPPRKGLEWLGVIWGSETTYYNSALKSRLTIIKDNSKSQVFLKMNSLQTDDTAIYYCAKHAYYGGSYAMDYWGQGTSVTVSSAAAIEVEQKLISEEDLLDNEKSNGTIIHVKGKHLCPSPLFPGPSKPFWVLVVVGGVLACYSLLVTVAFIIFWVRSKRSRLLHSDYMNMTPRRPGPTRKHYQPYAPPRDFAAYRSRVKFSRSADAPAYQQGQNQLYNELNLGRREEYDVLDKRRGRDPEMGGKPRRKNPQEGLYNELQKDKMAEAYSEIGMKGERRRGKGHDGLYQGLSTATKDTYDALHMQALPPR	binds
Y04 second generation CAR (F-2 with the fourth tyrosine of FMC63 VH CDR3 substituted by alanine), expressed on human T cells (other, CAR on transduced human T cells; also called FMC63(Y04)) DIQMTQTTSSLSASLGDRVTISCRASQDISKYLNWYQQKPDGTVKLLIYHTSRLHSGVPSRFSGSGSGTDYSLTISNLEQEDIATYFCQQGNTLPYTFGGGTKLEITGGGGSGGGGSGGGGSEVKLQESGPGLVAPSQSLSVTCTVSGVSLPDYGVSWIRQPPRKGLEWLGVIWGSETTYYNSALKSRLTIIKDNSKSQVFLKMNSLQTDDTAIYYCAKHYYYGGSAAMDYWGQGTSVTVSSAAAIEVEQKLISEEDLLDNEKSNGTIIHVKGKHLCPSPLFPGPSKPFWVLVVVGGVLACYSLLVTVAFIIFWVRSKRSRLLHSDYMNMTPRRPGPTRKHYQPYAPPRDFAAYRSRVKFSRSADAPAYQQGQNQLYNELNLGRREEYDVLDKRRGRDPEMGGKPRRKNPQEGLYNELQKDKMAEAYSEIGMKGERRRGKGHDGLYQGLSTATKDTYDALHMQALPPR	binds
